Measured values as given in patent US7148338B2, “Nucleic acids encoding dipeptidyl peptidases” (The University of Sydney, priority 1999, dated 2006).

Key:
[1] = target: DPPIV (Homo sapiens, UniProt P27487); details: references [43,44]; cited from earlier work
[2] = target: T1, DPP8 (Homo sapiens, UniProt Q6V1X1); assay: pH-dependence of DPP8 enzyme activity; assay type: biochemical
T1 construct: the full length DPP8 cDNA of 3.1 kb was cloned into the Xba I site of pcDNA3.1A/V5/His expression vector; expressed in transfected cells; host or cells: COS-7 (monkey kidney fibroblast) cells; clarified sonicated cell extract
Method: FIG. 7. DPP8 enzyme activity. (A) pH-dependence of DPP8 enzyme activity. (B) DPP8 and DPPIV enzyme kinetics. Means +/− SD of absorbance change per minute, multiplied by 1000 are shown. Curve fitting assumed Michaelis-Menten kinetics.
Enzyme assays were performed as described previously. Either clarified cell extract from 1×10^4 sonicated COS-7 cells or purified protein derived from 1×10^5 cells was incubated with substrate in 70 μL phosphate buffer, pH 7.4, for 30 min at 37° C., except where otherwise indicated. The specific DPPIV substrates, Gly-Pro-toluenesulfonate, H-Gly-Pro-p-nitroanilide (NA)/HCl (Sigma, St Louis, Mo., USA) and Gly-Pro-7-amino-4-trifluromethylcoumarin (Calbiochem, San Diego, Calif., USA) were tested. Other substrates tested were H-Ala-Pro-pNA/HCl, H-Arg-Pro-pNA acetate salt, H-Lys-Ala-pNA.2HCl, H-Asp-Pro-pNA, H-Ala-Ala-pNA/HCl, H-Ala-Ala-Pro-pNA/HCl, H-Ala-Ala-Phe-pNA, succinyl-Ala-Pro-pNA, H-Ala-Phe-Pro-pNA and Z-Ala-Pro-p-NA from Bachem (Switzerland). H-Ala-Pro-4-methoxyβNA/HCl, Z-Lys-Pro-4-methoxyβNAformate salt, H-Lys-Pro-4-methoxyβNA/HCl, Z-Ala-Pro-4-methoxyβNA, H-Gly-Pro-βNA and H-His-Ser-4-methoxyβNAacetate salt (Bachem) were tested for their ability to stain unfixed transfected cells. All inhibitors were (see Table 2) incubated with each purified enzyme in phosphate buffer, pH 7.4, for 15 min before the addition of substrate. […]

Molecule	pH optimum of enzyme activity [1]	pH optimum of enzyme activity [2]
DPPIV: dipeptidyl peptidase IV, comparator enzyme (protein, left off: small tags and cut ends, dipeptidyl peptidase IV, comparator enzyme) MKTPWKVLLGLLGAAALVTIITVPVVLLNKGTDDATADSRKTYTLTDYLKNTYRLKLYSLRWISDHEYLYKQENNILVFNAEYGNSSVFLENSTFDEFGHSINDYSISPDGQFILLEYNYVKQWRHSYTASYDIYDLNKRQLITEERIPNNTQWVTWSPVGHKLAYVWNNDIYVKIEPNLPSYRITWTGKEDIIYNGITDWVYEEEVFSAYSALWWSPNGTFLAYAQFNDTEVPLIEYSFYSDESLQYPKTVRVPYPKAGAVNPTVKFFVVNTDSLSSVTNATSIQITAPASMLIGDHYLCDVTWATQERISLQWLRRIQNYSVMDICDYDESSGRWNCLVARQHIEMSTTGWVGRFRPSEPHFTLDGNSFYKIISNEEGYRHICYFQIDKKDCTFITKGTWEVIGIEALTSDYLYYISNEYKGMPGGRNLYKIQLSDYTKVTCLSCELNPERCQYYSVSFSKEAKYYQLRCSGPGLPLYTLHSSVNDKGLRVLEDNSALDKMLQNVQMPSKKLDFIILNETKFWYQMILPPHFDKSKKYPLLLDVYAGPCSQKADTVFRLNWATYLASTENIIVASFDGRGSGYQGDKIMHAINRRLGTFEVEDQIEAARQFSKMGFVDNKRIAIWGWSYGGYVTSMVLGSGSGVFKCGIAVAPVSRWEYYDSVYTERYMGLPTPEDNLDHYRNSTVMSRAENFKQVEYLLIHGTADDNVHFQQSAQISKALVDVGVDFQAMWYTDEDHGIASSTAHQHIYTHMSHFIKQCFSLP	7.8	
DPP8: novel human dipeptidyl peptidase, amino acid sequence SEQ ID NO:1, 882 amino acids (protein, listed as Homo Sapiens) MAAAMETEQLGVEIFETADCEENIESQDRPKLEPFYVERYSWSQLKKLLADTRKYHGYMMAKAPHDFMFVKRNDPDGPHSDRIYYLAMSGENRENTLFYSEIPKTINRAAVLMLSWKPLLDLFQATLDYGMYSREEELLRERKRIGTVGIASYDYHQGSGTFLFQAGSGIYHVKDGGPQGFTQQPLRPNLVETSCPNIRMDPKLCPADPDWIAFIHSNDIWISNIVTREERRLTYVHNELANMEEDARSAGVATFVLQEEFDRYSGYWWCPKAETTPSGGKILRILYEENDESEVEIIHVTSPMLETRRADSFRYPKTGTANPKVTFKMSEIMIDAEGRIIDVIDKELIQPFEILFEGVEYIARAGWTPEGKYAWSILLDRSQTRLQIVLISPELFIPVEDDVMERQRLIESVPDSVTPLIIYEETTDIWINIHDIFHVFPQSHEEEIEFIFASECKTGFRHLYKITSILKESKYKRSSGGLPAPSDFKCPIKEEIAITSGEWEVLGRHGSNIQVDEVRRLVYFEGTKDSPLEHHLYVVSYVNPGEVTRLTDRGYSHSCCISQHCDFFISKYSNQKNPHCVSLYKLSSPEDDPTCKTKEFWATILDSAGPLPDYTPPEIFSFESTTGFTLYGMLYKPHDLQPGKKYPTVLFIYGGPQVQLVNNRFKGVKYFRLNTLASLGYVVVVIDNRGSCHRGLKFEGAFKYKMGQIEIDDQVEGLQYLASRYDFIDLDRVGIHGWSYGGYLSLMALMQRSDIFRVAIAGAPVTLWIFYDTGYTERYMGHPDQNEQGYYLGSVAMQAEKFPSEPNRLLLLHGFLDENVHFAHTSILLSFLVRAGKPYDLQIYPQERHSIRVPESGEHYELHLLHYLQENLGSRIAALKVI		7.4
